# B1: B2-Fc (anti-Pfs48/45 nanobody B2 fused to hinge and Fc of human IgG1) (Fc fusion)
# chain: QVQLQESGGGLVQAGGSLRLSCAASGRTFSKYAMAWFRQAPGKEREFVAAISGAGGATVHAAPVKGRFTISRDNAKNMGYLQMNSLKPEDTAVYYCAQTGSTGWPAGRTYTYDYWGQGTQVTVSS
# B2: C3-Fc (anti-Pfs48/45 nanobody C3 fused to hinge and Fc of human IgG1) (Fc fusion)
# chain: QVQLQESGGGSVQPGGSLRLSCAASGFTFSSYWMYWVRQAPEKGLEWVSVINPGGRITIYTDSVKGRFAVSRDNAKNTVYLQLNSLKPEDTAVYYCAASRTYSNSYSPSDYDYWGQGTQVTVSS
# B3: Anti-Pfs48/45 monoclonal antibody TB31F (humanised version of 85RF45.1) (antibody, V domains shown)
# VH: EVQLVQSGGGLVQPGGSLRLSCAASGFTFNNYWMSWVRQAPGKGLEWVSSISNIGGTIYYPDSVKGRFTISRDNSKNTLYLQMNSLRAEDTAVYYCTRDLRMSDYFDYWGQGTMVTVSS
# VL: NFMLTQPHSVSESPGKTVTISCTRSTGNIGSNYVSWYQQRPGSSPTTVIYRDDQRPSGVPDRFSGSIDRSSNSASLTISGLKTEDEADYYCHSYSTGMYIFGGGTKLTVL
# B4: A4-Fc (anti-Pfs48/45 nanobody A4 fused to hinge and Fc of human IgG1) (Fc fusion)
# chain: QVQLQESGGGLVQPGGSLRLSCAASGFTFSSYWMYWVRETPGKGLEWVSVINPGGRITIYTDSVKGRFTVSRDNAKNTVYLQMNSLKPEDTAVYFCAADLEYRAQLYAYWGQGTQVTVSS
# Target: Stabilised Pfs48/45 D3 (D3.mAgE1), PNGase F-deglycosylated, with C-terminal hexa-histidine tag and AviTag (P. falciparum)
# Assay: BLI
row,Binder,koff
1,B1,0.00476 s⁻¹
2,B2,0.0106 s⁻¹
3,B3,0.00239 s⁻¹
4,B4,0.00851 s⁻¹
